Test results from patent US20090280138A1 (OXFORD BIOMEDICA UK, published 2009).

molecular target: T1, MHC class I allele A*0101 (bound via biotin to streptavidin-coated plate); experiment: iTopia peptide binding assay
T1 construct: iTopia MHC class I monomer on the plate; placeholder peptide and b2M removed, then reconstituted with test peptide and fresh b2M; also called A1; HLA A1
Method: (§1) The 9 mers were tested for Peptide Binding, Off Rate and Affinity using iTopia Epitope Discovery System in accordance with the manufacturer's instructions. Briefly, 96 well microtitre plates coated with MHC molecules representing different MHC alleles are used to identify candidate peptides. […] Determinations are performed in duplicate using an ELISA plate reader and included allele specific positive controls.
(§2) i) Peptide Binding—This assay measures the ability of individual peptides to bind to the MHC molecules under standardized optimal binding conditions. The assay is performed for all the test peptides across the selected MHC alleles. The test peptides identified as “binders” are characterized further in terms of affinity and dissociation experiments.

| Binder | % of positive control peptide binding [%] |
| --- | --- |
| ERQNRSFEG (also called Peptide No 95) [5T4 9 mer peptide 95 ERQNRSFEG] | 0 |
| RRLELASNH [5T4 9 mer peptide 107 RRLELASNH] | 0 |
| VSAPSPLVE (also called Peptide No 85) [5T4 9 mer peptide 85 VSAPSPLVE] | 3 |
| LPSLRQLDL (also called Peptide No 71) [5T4 9 mer peptide 71 LPSLRQLDL] | 0 |
| LPSLRHLDL (also called Peptide No 117) [5T4 9 mer peptide 117 LPSLRHLDL] | 0 |
| HNPLADLSP (also called Peptide No 76) [5T4 9 mer peptide 76 HNPLADLSP] | 5 |
| PLADLSPFA (also called Peptide No 77) [5T4 9 mer peptide 77 PLADLSPFA] | 1 |
| LPRDVLAQL [5T4 9 mer peptide 113 LPRDVLAQL] | 3 |
| ILNHIVPPE (also called Peptide No 90) [5T4 9 mer peptide 90 ILNHIVPPE] | 5 |
| LASNHFLYL [5T4 9 mer peptide 109 LASNHFLYL] | 26 |
| SLRQLDLSH (also called Peptide No 72) [5T4 9 mer peptide 72 SLRQLDLSH] | 0 |
| AFSGSNASV (also called Peptide No 81) [5T4 9 mer peptide 81 AFSGSNASV] | 2 |
| AALLAGRAL [5T4 9 mer peptide 101 AALLAGRAL] | 1 |
| SGSNASVSA (also called Peptide No 82) [5T4 9 mer peptide 82 SGSNASVSA] | 5 |
| RQLDLSHNP (also called Peptide No 73) [5T4 9 mer peptide 73 RQLDLSHNP] | 2 |
| IVPPEDERQ (also called Peptide No 92) [5T4 9 mer peptide 92 IVPPEDERQ] | 6 |
| VVAALLAGR (also called Peptide No 100) [5T4 9 mer peptide 100 VVAALLAGR] | 9 |
| EDERQNRSF (also called Peptide No 94) [5T4 9 mer peptide 94 EDERQNRSF] | 0 |
| PFAFSGSNA (also called Peptide No 80) [5T4 9 mer peptide 80 PFAFSGSNA] | 0 |
| GMVVAALLA (also called Peptide No 99) [5T4 9 mer peptide 99 GMVVAALLA] | 0 |
| AGRALQGLR (also called Peptide No 103) [5T4 9 mer peptide 103 AGRALQGLR] | 0 |
| NHIVPPEDE (also called Peptide No 91) [5T4 9 mer peptide 91 NHIVPPEDE] | 6 |
| PPEDERQNR (also called Peptide No 93) [5T4 9 mer peptide 93 PPEDERQNR] | 0 |

molecular target: T2, MHC class I allele A*0201 (bound via biotin to streptavidin-coated plate); experiment: iTopia peptide binding assay
T2 construct: iTopia MHC class I monomer on the plate; placeholder peptide and b2M removed, then reconstituted with test peptide and fresh b2M; also called A2; HLA A2
Method: as §1, §2

| Binder | % of positive control peptide binding [%] |
| --- | --- |
| ERQNRSFEG (also called Peptide No 95) [5T4 9 mer peptide 95 ERQNRSFEG] | 1 |
| RRLELASNH [5T4 9 mer peptide 107 RRLELASNH] | 5 |
| VSAPSPLVE (also called Peptide No 85) [5T4 9 mer peptide 85 VSAPSPLVE] | 13 |
| LPSLRQLDL (also called Peptide No 71) [5T4 9 mer peptide 71 LPSLRQLDL] | 27 |
| LPSLRHLDL (also called Peptide No 117) [5T4 9 mer peptide 117 LPSLRHLDL] | 16 |
| HNPLADLSP (also called Peptide No 76) [5T4 9 mer peptide 76 HNPLADLSP] | 7 |
| PLADLSPFA (also called Peptide No 77) [5T4 9 mer peptide 77 PLADLSPFA] | 67 |
| LPRDVLAQL [5T4 9 mer peptide 113 LPRDVLAQL] | 10 |
| ILNHIVPPE (also called Peptide No 90) [5T4 9 mer peptide 90 ILNHIVPPE] | 63 |
| LASNHFLYL [5T4 9 mer peptide 109 LASNHFLYL] | 78 |
| SLRQLDLSH (also called Peptide No 72) [5T4 9 mer peptide 72 SLRQLDLSH] | 6 |
| AFSGSNASV (also called Peptide No 81) [5T4 9 mer peptide 81 AFSGSNASV] | 55 |
| AALLAGRAL [5T4 9 mer peptide 101 AALLAGRAL] | 38 |
| SGSNASVSA (also called Peptide No 82) [5T4 9 mer peptide 82 SGSNASVSA] | 15 |
| RQLDLSHNP (also called Peptide No 73) [5T4 9 mer peptide 73 RQLDLSHNP] | 8 |
| IVPPEDERQ (also called Peptide No 92) [5T4 9 mer peptide 92 IVPPEDERQ] | 12 |
| VVAALLAGR (also called Peptide No 100) [5T4 9 mer peptide 100 VVAALLAGR] | 11 |
| EDERQNRSF (also called Peptide No 94) [5T4 9 mer peptide 94 EDERQNRSF] | 2 |
| PFAFSGSNA (also called Peptide No 80) [5T4 9 mer peptide 80 PFAFSGSNA] | 13 |
| GMVVAALLA (also called Peptide No 99) [5T4 9 mer peptide 99 GMVVAALLA] | 71 |
| AGRALQGLR (also called Peptide No 103) [5T4 9 mer peptide 103 AGRALQGLR] | 2 |
| NHIVPPEDE (also called Peptide No 91) [5T4 9 mer peptide 91 NHIVPPEDE] | 11 |
| PPEDERQNR (also called Peptide No 93) [5T4 9 mer peptide 93 PPEDERQNR] | 2 |

molecular target: T3, MHC class I allele A*0301 (bound via biotin to streptavidin-coated plate); experiment: iTopia peptide binding assay
T3 construct: iTopia MHC class I monomer on the plate; placeholder peptide and b2M removed, then reconstituted with test peptide and fresh b2M; also called A3; HLA A3
Method: as §1, §2

| Binder | % of positive control peptide binding [%] |
| --- | --- |
| ERQNRSFEG (also called Peptide No 95) [5T4 9 mer peptide 95 ERQNRSFEG] | 1 |
| RRLELASNH [5T4 9 mer peptide 107 RRLELASNH] | 3 |
| VSAPSPLVE (also called Peptide No 85) [5T4 9 mer peptide 85 VSAPSPLVE] | 7 |
| LPSLRQLDL (also called Peptide No 71) [5T4 9 mer peptide 71 LPSLRQLDL] | 0 |
| LPSLRHLDL (also called Peptide No 117) [5T4 9 mer peptide 117 LPSLRHLDL] | 1 |
| HNPLADLSP (also called Peptide No 76) [5T4 9 mer peptide 76 HNPLADLSP] | 3 |
| PLADLSPFA (also called Peptide No 77) [5T4 9 mer peptide 77 PLADLSPFA] | 0 |
| LPRDVLAQL [5T4 9 mer peptide 113 LPRDVLAQL] | 3 |
| ILNHIVPPE (also called Peptide No 90) [5T4 9 mer peptide 90 ILNHIVPPE] | 4 |
| LASNHFLYL [5T4 9 mer peptide 109 LASNHFLYL] | 18 |
| SLRQLDLSH (also called Peptide No 72) [5T4 9 mer peptide 72 SLRQLDLSH] | 11 |
| AFSGSNASV (also called Peptide No 81) [5T4 9 mer peptide 81 AFSGSNASV] | 2 |
| AALLAGRAL [5T4 9 mer peptide 101 AALLAGRAL] | 0 |
| SGSNASVSA (also called Peptide No 82) [5T4 9 mer peptide 82 SGSNASVSA] | 3 |
| RQLDLSHNP (also called Peptide No 73) [5T4 9 mer peptide 73 RQLDLSHNP] | 2 |
| IVPPEDERQ (also called Peptide No 92) [5T4 9 mer peptide 92 IVPPEDERQ] | 3 |
| VVAALLAGR (also called Peptide No 100) [5T4 9 mer peptide 100 VVAALLAGR] | 49 |
| EDERQNRSF (also called Peptide No 94) [5T4 9 mer peptide 94 EDERQNRSF] | 4 |
| PFAFSGSNA (also called Peptide No 80) [5T4 9 mer peptide 80 PFAFSGSNA] | 3 |
| GMVVAALLA (also called Peptide No 99) [5T4 9 mer peptide 99 GMVVAALLA] | 0 |
| AGRALQGLR (also called Peptide No 103) [5T4 9 mer peptide 103 AGRALQGLR] | 2 |
| NHIVPPEDE (also called Peptide No 91) [5T4 9 mer peptide 91 NHIVPPEDE] | 3 |
| PPEDERQNR (also called Peptide No 93) [5T4 9 mer peptide 93 PPEDERQNR] | 0 |

molecular target: T4, MHC class I allele B*0702 (bound via biotin to streptavidin-coated plate); experiment: iTopia peptide binding assay
T4 construct: iTopia MHC class I monomer on the plate; placeholder peptide and b2M removed, then reconstituted with test peptide and fresh b2M; also called B7; HLA B7
Method: as §1, §2

| Binder | % of positive control peptide binding [%] |
| --- | --- |
| ERQNRSFEG (also called Peptide No 95) [5T4 9 mer peptide 95 ERQNRSFEG] | 1 |
| RRLELASNH [5T4 9 mer peptide 107 RRLELASNH] | 3 |
| VSAPSPLVE (also called Peptide No 85) [5T4 9 mer peptide 85 VSAPSPLVE] | 3 |
| LPSLRQLDL (also called Peptide No 71) [5T4 9 mer peptide 71 LPSLRQLDL] | 82 |
| LPSLRHLDL (also called Peptide No 117) [5T4 9 mer peptide 117 LPSLRHLDL] | 96 |
| HNPLADLSP (also called Peptide No 76) [5T4 9 mer peptide 76 HNPLADLSP] | 5 |
| PLADLSPFA (also called Peptide No 77) [5T4 9 mer peptide 77 PLADLSPFA] | 10 |
| LPRDVLAQL [5T4 9 mer peptide 113 LPRDVLAQL] | 79 |
| ILNHIVPPE (also called Peptide No 90) [5T4 9 mer peptide 90 ILNHIVPPE] | 7 |
| LASNHFLYL [5T4 9 mer peptide 109 LASNHFLYL] | 49 |
| SLRQLDLSH (also called Peptide No 72) [5T4 9 mer peptide 72 SLRQLDLSH] | 13 |
| AFSGSNASV (also called Peptide No 81) [5T4 9 mer peptide 81 AFSGSNASV] | 14 |
| AALLAGRAL [5T4 9 mer peptide 101 AALLAGRAL] | 59 |
| SGSNASVSA (also called Peptide No 82) [5T4 9 mer peptide 82 SGSNASVSA] | 11 |
| RQLDLSHNP (also called Peptide No 73) [5T4 9 mer peptide 73 RQLDLSHNP] | 4 |
| IVPPEDERQ (also called Peptide No 92) [5T4 9 mer peptide 92 IVPPEDERQ] | 3 |
| VVAALLAGR (also called Peptide No 100) [5T4 9 mer peptide 100 VVAALLAGR] | 7 |
| EDERQNRSF (also called Peptide No 94) [5T4 9 mer peptide 94 EDERQNRSF] | 4 |
| PFAFSGSNA (also called Peptide No 80) [5T4 9 mer peptide 80 PFAFSGSNA] | 7 |
| GMVVAALLA (also called Peptide No 99) [5T4 9 mer peptide 99 GMVVAALLA] | 0 |
| AGRALQGLR (also called Peptide No 103) [5T4 9 mer peptide 103 AGRALQGLR] | 1 |
| NHIVPPEDE (also called Peptide No 91) [5T4 9 mer peptide 91 NHIVPPEDE] | 5 |
| PPEDERQNR (also called Peptide No 93) [5T4 9 mer peptide 93 PPEDERQNR] | 0 |
